Experiments:
[1] = molecular target: microtubules (purified tubulin, polymerised in buffer); experiment: TIRF of Eg5-GFP on immobilised GMPCPP microtubules; conditions: reference: wild-type Eg5-GFP, Cdk1-treated; sites T937
[2] = molecular target: Alexa-568 labeled microtubules (paclitaxel-stabilised) (UniProt P02550)
[3] = molecular target: spindle microtubules in Xenopus egg extract (Xenopus laevis (endogenous in egg extract)); experiment: fluorescence microscopy of fixed spindles (GFP intensity per TAMRA-tubulin intensity); endogenous Eg5 immunodepleted from Xenopus egg extract and replaced by recombinant Eg5-GFP constructs; spindle structures fixed after 45 min, spun onto coverslips; ratios normalised to 1 at 460 nM Eg5-GFP

Chain of UniProt P02550 (P02550 whole entry, looked up): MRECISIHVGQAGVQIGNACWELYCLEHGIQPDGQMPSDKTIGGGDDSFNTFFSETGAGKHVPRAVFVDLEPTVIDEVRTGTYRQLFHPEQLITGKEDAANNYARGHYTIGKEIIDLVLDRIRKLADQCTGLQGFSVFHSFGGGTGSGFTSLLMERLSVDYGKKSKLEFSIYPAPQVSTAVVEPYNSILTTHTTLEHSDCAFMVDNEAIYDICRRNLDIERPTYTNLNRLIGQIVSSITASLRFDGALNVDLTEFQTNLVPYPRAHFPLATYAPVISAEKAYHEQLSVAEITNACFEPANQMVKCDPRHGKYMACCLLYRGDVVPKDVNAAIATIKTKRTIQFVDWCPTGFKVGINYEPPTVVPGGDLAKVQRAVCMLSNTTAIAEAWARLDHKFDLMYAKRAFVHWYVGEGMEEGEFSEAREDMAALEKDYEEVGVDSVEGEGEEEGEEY

With Eg5 1-1067 Eg5T937A-GFP, Cdk1-treated the “other: mean GFP intensity on microtubules at 15 nM Eg5” value [1] was “weaker; reference 1226±39”.

B1: Eg5 phosphorylated at threonine 937 by Cdk1/cyclin B in vitro (natural protein)
chain: MSSQNSFMASKKEDKGKNIQVVVRCRPFNQLERKASSHSVLECDSQRKEVYVRTGEVNDKLGKKTYTFDMVFGPAAKQIEVYRSVVCPILDEVIMGYNCTIFAYGQTGTGKTFTMEGERSSDEEFTWEQDPLAGIIPRTLHQIFEKLSENGTEFSVKVSLLEIYNEELFDLLSPSPDVGERLQMFDDPRNKRGVIIKGLEEISVHNKDEVYHILERGAARRKTASTLMNAYSSRSHSVFSVTIHMKETTVDGEELVKIGKLNLVDLAGSENIGRSGAVDKRAREAGNINQSLLTLGRVITALVERTPHIPYRESKLTRILQDSLGGRTKTSIIATVSPASINLEETVSTLDYANRAKSIMNKPEVNQKLTKKALIKEYTEEIERLKRELAAAREKNGVYLSSENYEQLQGKVLSQEEMITEYTEKITAMEEELKSISELFADNKKELEECTTILQCKEKELEETQNHLQESKEQLAQESFVVSAFETTEKKLHGTANKLLSTVRETTRDVSGLHEKLDRKKAVDQHNFQVHENFAEQMDRRFSVIQRTVDDYSVKQQGMLDFYTNSIDDLLGASSSRLSATASAVAKSFASVQETVTKQVSHSVEEILKQETLSSQAKGDLQQLMAAHRTGLEEALRSDLLPVVTAVLDLNSHLSHCLQNFLIVADKIDSHKEDMNSFFTEHSRSLHKLRLDSSSALSSIQSEYESLKEDIATAQSMHSEGVNNLISSLQNQLNLLGMETQQQFSGFLSKGGKLQKSVGSLQQDLDLVSSEAIECISSHHKKLAEQSQDVAVEIRQLAGSNMSTLEESSKQCEKLTSSINTISQESQQWCESAGQKIDSVLEEQVCYLHSSKKHLQNLHKGVEDSCGSSVVEITDRVNAQRQAEEKALTSLVEQVRDDQEMVGEQRLELQEQVQSGLNKVHSYLKEELRNDVPTGTTPQRRDYAYPSLLVKTKPRDVLLEQFRQQQQEYLESISSVISEAVEPPVEQDSLEDEPPVAVNDSVISERSCIDLSMTCQEKGGIRFFQQKKALRKEKENRGNTTLLERSKIMDEVDQALTKSKLPLRMQN
modifications: phosphothreonine at 937 (degree of phosphorylation 87.9% per polypeptide chain)
B1 was tested, and the velocity in microtubule gliding assay (surface-adsorbed motor, 21°C) [2] was 1.7 µm/min.

B2: Eg5_(T937A) (non-phosphorylatable mutant of full-length Xenopus laevis Eg5) (natural protein)
chain: MSSQNSFMASKKEDKGKNIQVVVRCRPFNQLERKASSHSVLECDSQRKEVYVRTGEVNDKLGKKTYTFDMVFGPAAKQIEVYRSVVCPILDEVIMGYNCTIFAYGQTGTGKTFTMEGERSSDEEFTWEQDPLAGIIPRTLHQIFEKLSENGTEFSVKVSLLEIYNEELFDLLSPSPDVGERLQMFDDPRNKRGVIIKGLEEISVHNKDEVYHILERGAARRKTASTLMNAYSSRSHSVFSVTIHMKETTVDGEELVKIGKLNLVDLAGSENIGRSGAVDKRAREAGNINQSLLTLGRVITALVERTPHIPYRESKLTRILQDSLGGRTKTSIIATVSPASINLEETVSTLDYANRAKSIMNKPEVNQKLTKKALIKEYTEEIERLKRELAAAREKNGVYLSSENYEQLQGKVLSQEEMITEYTEKITAMEEELKSISELFADNKKELEECTTILQCKEKELEETQNHLQESKEQLAQESFVVSAFETTEKKLHGTANKLLSTVRETTRDVSGLHEKLDRKKAVDQHNFQVHENFAEQMDRRFSVIQRTVDDYSVKQQGMLDFYTNSIDDLLGASSSRLSATASAVAKSFASVQETVTKQVSHSVEEILKQETLSSQAKGDLQQLMAAHRTGLEEALRSDLLPVVTAVLDLNSHLSHCLQNFLIVADKIDSHKEDMNSFFTEHSRSLHKLRLDSSSALSSIQSEYESLKEDIATAQSMHSEGVNNLISSLQNQLNLLGMETQQQFSGFLSKGGKLQKSVGSLQQDLDLVSSEAIECISSHHKKLAEQSQDVAVEIRQLAGSNMSTLEESSKQCEKLTSSINTISQESQQWCESAGQKIDSVLEEQVCYLHSSKKHLQNLHKGVEDSCGSSVVEITDRVNAQRQAEEKALTSLVEQVRDDQEMVGEQRLELQEQVQSGLNKVHSYLKEELRNDVPTGTAPQRRDYAYPSLLVKTKPRDVLLEQFRQQQQEYLESISSVISEAVEPPVEQDSLEDEPPVAVNDSVISERSCIDLSMTCQEKGGIRFFQQKKALRKEKENRGNTTLLERSKIMDEVDQALTKSKLPLRMQN
B2 gave a velocity in microtubule gliding assay relative to wild-type Eg5, with or without Cdk1/cyclin B [2] of 88%.

B3: Eg5_(T937A)-GFP (non-phosphorylatable mutant of Xenopus laevis Eg5 with C-terminal GFP) (natural protein)
chain: MSSQNSFMASKKEDKGKNIQVVVRCRPFNQLERKASSHSVLECDSQRKEVYVRTGEVNDKLGKKTYTFDMVFGPAAKQIEVYRSVVCPILDEVIMGYNCTIFAYGQTGTGKTFTMEGERSSDEEFTWEQDPLAGIIPRTLHQIFEKLSENGTEFSVKVSLLEIYNEELFDLLSPSPDVGERLQMFDDPRNKRGVIIKGLEEISVHNKDEVYHILERGAARRKTASTLMNAYSSRSHSVFSVTIHMKETTVDGEELVKIGKLNLVDLAGSENIGRSGAVDKRAREAGNINQSLLTLGRVITALVERTPHIPYRESKLTRILQDSLGGRTKTSIIATVSPASINLEETVSTLDYANRAKSIMNKPEVNQKLTKKALIKEYTEEIERLKRELAAAREKNGVYLSSENYEQLQGKVLSQEEMITEYTEKITAMEEELKSISELFADNKKELEECTTILQCKEKELEETQNHLQESKEQLAQESFVVSAFETTEKKLHGTANKLLSTVRETTRDVSGLHEKLDRKKAVDQHNFQVHENFAEQMDRRFSVIQRTVDDYSVKQQGMLDFYTNSIDDLLGASSSRLSATASAVAKSFASVQETVTKQVSHSVEEILKQETLSSQAKGDLQQLMAAHRTGLEEALRSDLLPVVTAVLDLNSHLSHCLQNFLIVADKIDSHKEDMNSFFTEHSRSLHKLRLDSSSALSSIQSEYESLKEDIATAQSMHSEGVNNLISSLQNQLNLLGMETQQQFSGFLSKGGKLQKSVGSLQQDLDLVSSEAIECISSHHKKLAEQSQDVAVEIRQLAGSNMSTLEESSKQCEKLTSSINTISQESQQWCESAGQKIDSVLEEQVCYLHSSKKHLQNLHKGVEDSCGSSVVEITDRVNAQRQAEEKALTSLVEQVRDDQEMVGEQRLELQEQVQSGLNKVHSYLKEELRNDVPTGTAPQRRDYAYPSLLVKTKPRDVLLEQFRQQQQEYLESISSVISEAVEPPVEQDSLEDEPPVAVNDSVISERSCIDLSMTCQEKGGIRFFQQKKALRKEKENRGNTTLLERSKIMDEVDQALTKSKLPLRMQN
In the case of B3, the fold lower amount bound than wild-type Eg5-GFP, at endogenous concentration [3] is reported as 20 fold.

B4: Eg5 (wild-type full-length Xenopus laevis Eg5), not phosphorylated (natural protein)
chain: MSSQNSFMASKKEDKGKNIQVVVRCRPFNQLERKASSHSVLECDSQRKEVYVRTGEVNDKLGKKTYTFDMVFGPAAKQIEVYRSVVCPILDEVIMGYNCTIFAYGQTGTGKTFTMEGERSSDEEFTWEQDPLAGIIPRTLHQIFEKLSENGTEFSVKVSLLEIYNEELFDLLSPSPDVGERLQMFDDPRNKRGVIIKGLEEISVHNKDEVYHILERGAARRKTASTLMNAYSSRSHSVFSVTIHMKETTVDGEELVKIGKLNLVDLAGSENIGRSGAVDKRAREAGNINQSLLTLGRVITALVERTPHIPYRESKLTRILQDSLGGRTKTSIIATVSPASINLEETVSTLDYANRAKSIMNKPEVNQKLTKKALIKEYTEEIERLKRELAAAREKNGVYLSSENYEQLQGKVLSQEEMITEYTEKITAMEEELKSISELFADNKKELEECTTILQCKEKELEETQNHLQESKEQLAQESFVVSAFETTEKKLHGTANKLLSTVRETTRDVSGLHEKLDRKKAVDQHNFQVHENFAEQMDRRFSVIQRTVDDYSVKQQGMLDFYTNSIDDLLGASSSRLSATASAVAKSFASVQETVTKQVSHSVEEILKQETLSSQAKGDLQQLMAAHRTGLEEALRSDLLPVVTAVLDLNSHLSHCLQNFLIVADKIDSHKEDMNSFFTEHSRSLHKLRLDSSSALSSIQSEYESLKEDIATAQSMHSEGVNNLISSLQNQLNLLGMETQQQFSGFLSKGGKLQKSVGSLQQDLDLVSSEAIECISSHHKKLAEQSQDVAVEIRQLAGSNMSTLEESSKQCEKLTSSINTISQESQQWCESAGQKIDSVLEEQVCYLHSSKKHLQNLHKGVEDSCGSSVVEITDRVNAQRQAEEKALTSLVEQVRDDQEMVGEQRLELQEQVQSGLNKVHSYLKEELRNDVPTGTTPQRRDYAYPSLLVKTKPRDVLLEQFRQQQQEYLESISSVISEAVEPPVEQDSLEDEPPVAVNDSVISERSCIDLSMTCQEKGGIRFFQQKKALRKEKENRGNTTLLERSKIMDEVDQALTKSKLPLRMQN
B4 showed a velocity in microtubule gliding assay (surface-adsorbed motor, 21°C) [2] of 1.8 µm/min.

Reference: article PMC2592692
